B1: APBB1IP (parent)
chain: PPEPLSQVSMWDQRWQDHQPLLPI
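Further: lentivirally expressed fusions sorted by FACS into six bins by GFP to DsRed ratio, PSI derived from sequencing read proportions per bin multiplied by bin number.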

The variants in the data set derive from B1. Nature of the data set: protein stability index of a GFP-peptide fusion (GPS, HEK-293T) (PSI 1-6); higher = more stable. Conditions: c terminus: a fixed tail appended.
Turning to PPEPLSQWSMWDQRWQDHQPLLPI [V8W], the protein stability index is 2.21. Take PPEPLSQASMWDQRWQDHQPLLPI [V8A]: the protein stability index was 3.02. The same measure for PPEPLSQNSMWDQRWQDHQPLLPI [V8N]: 3.36. On to PPEPLSQVSMTDQRWQDHQPLLPI [W11T], for which the protein stability index was found to be 3.73. Regarding PPEPLSQVSMVDQRWQDHQPLLPI [W11V], the protein stability index came to 3.9.

As to PPEPLSQVSMCDQRWQDHQPLLPI [W11C], the protein stability index is 3.16. As to PPEPLSQVSMADQRWQDHQPLLPI [W11A], the protein stability index was found to be 4.11.

In the case of PPEPLSQVSMQDQRWQDHQPLLPI [W11Q], the protein stability index was 4.25. As for PPEPLSQVSMMDQRWQDHQPLLPI [W11M], the protein stability index is 3.57. On to PPEPLSAVSMWDQRWQDHQPLLPI [Q7A], for which the protein stability index came to 3.47. In the case of PPEPLSVVSMWDQRWQDHQPLLPI [Q7V], the protein stability index was 3.33.

For PPEPLSIVSMWDQRWQDHQPLLPI [Q7I], the protein stability index is 3.07.

As for PPEPLSEVSMWDQRWQDHQPLLPI [Q7E], the protein stability index was 3.56. Take PPEPLSSVSMWDQRWQDHQPLLPI [Q7S]: the protein stability index came to 2.81. Regarding PPEPLSLVSMWDQRWQDHQPLLPI [Q7L], the protein stability index was 2.85. The same measure for PPEPLSWVSMWDQRWQDHQPLLPI [Q7W]: 2.05. In the case of PPEPLSMVSMWDQRWQDHQPLLPI [Q7M], the protein stability index turned out to be 2.74. In the case of PPEPLSFVSMWDQRWQDHQPLLPI [Q7F], the protein stability index stood at 2.95. Take PPEPLSYVSMWDQRWQDHQPLLPI [Q7Y]: the protein stability index turned out to be 2.27. Consider PPEPLSQVNMWDQRWQDHQPLLPI [S9N], for which the protein stability index turned out to be 3.25. As for PPEPLSQVHMWDQRWQDHQPLLPI [S9H], the protein stability index was determined as 3.22.

As to PPEPLSQVDMWDQRWQDHQPLLPI [S9D], the protein stability index amounted to 3.55. Under PPEPLSQVFMWDQRWQDHQPLLPI [S9F] stands 2.95.

In the case of PPEPLSQVIMWDQRWQDHQPLLPI [S9I], the protein stability index was found to be 2.86.

For the variant PPEPLSQVYMWDQRWQDHQPLLPI [S9Y], the protein stability index came to 2.57. On to PPEPLSQVSMWDQRWKDHQPLLPI [Q16K], for which the protein stability index was found to be 3.06. With PPEPLSQVSMWDQRWMDHQPLLPI [Q16M], the protein stability index was 2.99.

PPEPLSQVSMWDQRWNDHQPLLPI [Q16N]: the protein stability index worked out at 2.85. PPEPLSQVSMWDQRWRDHQPLLPI [Q16R]: the protein stability index was 2.68. Turning to PPEPLSQVSMWDQRWLDHQPLLPI [Q16L], the protein stability index was found to be 2.46.

Regarding PPEPLSQVSMWDQRWYDHQPLLPI [Q16Y], the protein stability index came to 2.98.

Regarding PPEPLSQVSMWDQRWQDHQPELPI [L21E], the protein stability index stood at 4. Regarding PPEPLSQVSMWDQRWQDHQPKLPI [L21K], the protein stability index came out at 3.44. In the case of PPEPLSQVSMWDQRWQDHQPDLPI [L21D], the protein stability index worked out at 4.13.

Take PPEPLSQVSMWDQRWQDHQPCLPI [L21C]: the protein stability index came to 3.4. In the case of PPEPLSQVSMWDQRWQDHQPHLPI [L21H], the protein stability index was 3.39.

As to PPEPLSQVSMWDQRWQDHQPTLPI [L21T], the protein stability index stood at 3.93. For PPEPLSQVSMWDQRWQDHQPNLPI [L21N], the protein stability index came out at 3.88. Turning to PPEPLSQVSMWDQRWQDHQPPLPI [L21P], the protein stability index was determined as 3.54. As to IPEPLSQVSMWDQRWQDHQPLLPI [P1I], the protein stability index was found to be 2.39. Under NPEPLSQVSMWDQRWQDHQPLLPI [P1N] stands 2.87; under GPEPLSQVSMWDQRWQDHQPLLPI [P1G], 1.94. With LPEPLSQVSMWDQRWQDHQPLLPI [P1L], the protein stability index came to 2.02. For APEPLSQVSMWDQRWQDHQPLLPI [P1A], the protein stability index stood at 2.64. Under HPEPLSQVSMWDQRWQDHQPLLPI [P1H] stands 3.07; under FPEPLSQVSMWDQRWQDHQPLLPI [P1F], 2.17; under WPEPLSQVSMWDQRWQDHQPLLPI [P1W], 2.48. DPEPLSQVSMWDQRWQDHQPLLPI [P1D]: the protein stability index was 3.31. Take PPELLSQVSMWDQRWQDHQPLLPI [P4L]: the protein stability index amounted to 2.54. PPEGLSQVSMWDQRWQDHQPLLPI [P4G]: the protein stability index amounted to 2.79. In the case of PPEKLSQVSMWDQRWQDHQPLLPI [P4K], the protein stability index came out at 2.55. For the variant PPEILSQVSMWDQRWQDHQPLLPI [P4I], the protein stability index came to 2.52. With PPEELSQVSMWDQRWQDHQPLLPI [P4E], the protein stability index was 3.34. Under PPERLSQVSMWDQRWQDHQPLLPI [P4R] stands 2.55. Regarding PPEPLSQVSMWDQRNQDHQPLLPI [W15N], the protein stability index came out at 3.7. As to PPEPLSQVSMWDQRSQDHQPLLPI [W15S], the protein stability index turned out to be 3.95. As to PPEPLSQVSMWDQRVQDHQPLLPI [W15V], the protein stability index amounted to 3.93. PPEPLSQVSMWDQRFQDHQPLLPI [W15F]: the protein stability index is 3.62. PPEPLSQVSMWDQRLQDHQPLLPI [W15L]: the protein stability index amounted to 3.28. Consider PPEPLSQVSMWDQRYQDHQPLLPI [W15Y], for which the protein stability index was 3.14.

As to PPEPLSQVSMWDQRMQDHQPLLPI [W15M], the protein stability index came out at 4.02. For the variant PPEPLSQVSMWDQRWQDHQSLLPI [P20S], the protein stability index amounted to 3.37. Under PPEPLSQVSMWDQRWQDHQELLPI [P20E] stands 3.29; under PPEPLSQVSMWDQRWQDHQCLLPI [P20C], 2.95.

For the variant PPEPLSQVSMWDQRWQDHKPLLPI [Q19K], the protein stability index came to 2.87.

Take PPEPLSQVSMWDQRWQDHEPLLPI [Q19E]: the protein stability index amounted to 3.48. Turning to PPEPLSQVSMWDQRWQDHDPLLPI [Q19D], the protein stability index came out at 3.74. As to PPEPLSQVSMWDQRWQDHIPLLPI [Q19I], the protein stability index worked out at 2.47. Regarding PPEPLSQVSMWDQRWQDHMPLLPI [Q19M], the protein stability index came out at 2.72.

Turning to PPEPLSQVSMWDQRWQDHHPLLPI [Q19H], the protein stability index was 2.48. Turning to PPEPLSQVSMWDQRWQDHSPLLPI [Q19S], the protein stability index is 2.31. Consider PPEPLSQVSMWDQRWQDHTPLLPI [Q19T], for which the protein stability index was 3.02. Regarding PPEPLSQVSMWDQRWQDHGPLLPI [Q19G], the protein stability index worked out at 3.33. Under PPEPLSQVSMWDQRWQDHCPLLPI [Q19C] stands 2.61. The same measure for PPEPLSQVSKWDQRWQDHQPLLPI [M10K]: 2.92; for PPEPLSQVSEWDQRWQDHQPLLPI [M10E]: 3.98.

As to PPEPLSQVSGWDQRWQDHQPLLPI [M10G], the protein stability index was 3.3.

For the variant PPEPLSQVSWWDQRWQDHQPLLPI [M10W], the protein stability index is 3.12. As to PPEPLSQVSIWDQRWQDHQPLLPI [M10I], the protein stability index amounted to 2.79.

Take PPEPLSQVSMWDQRWQDHQPLFPI [L22F]: the protein stability index is 2.77.

PPEPLSQVSMWDQRWQDHQPLCPI [L22C]: the protein stability index turned out to be 3.5.

As for PPEPLSQVSMWDQRWQDHQPLIPI [L22I], the protein stability index was 2.49. The same measure for PPEPLSQVSMWDQRWQDHQPLWPI [L22W]: 2.4; for PPEPLSQVSMWDQRWQDHQPLGPI [L22G]: 3.8. On to PPEPLSQVSMWDQRWQDHQPLPPI [L22P], for which the protein stability index came to 3.12. Consider PPEPQSQVSMWDQRWQDHQPLLPI [L5Q], for which the protein stability index came to 3.53. On to PPEPSSQVSMWDQRWQDHQPLLPI [L5S], for which the protein stability index was found to be 3.26.

PPEPNSQVSMWDQRWQDHQPLLPI [L5N]: the protein stability index was determined as 3.31. With PPEPTSQVSMWDQRWQDHQPLLPI [L5T], the protein stability index came to 3.19. As for PPEPESQVSMWDQRWQDHQPLLPI [L5E], the protein stability index was 3.57. With PPEPLSQVSMWDQRWQDHQPLLQI [P23Q], the protein stability index amounted to 2.39. On to PPEPLSQVSMWDQRWQDHQPLLHI [P23H], for which the protein stability index amounted to 2.05. Regarding PPEPLSQVSMWDQRWQDHQPLLAI [P23A], the protein stability index is 2.05. For the variant PPEPLSQVSMWDQRWQDHQPLLLI [P23L], the protein stability index turned out to be 1.99.

The record behind these values is the supplement of paper PMC10567573.
